# Measured values taken from IntAct's records for PubMed 24152121.
# What was measured:
# vp26a_mouse Vps26a = vp26a_mouse Vps26a (UniProt P40336)
# vps29_mouse Vps29 = vps29_mouse Vps29 (UniProt Q9QZ88)
substance,measurement,setting,value
Vacuolar protein sorting-associated protein 35 (Homo sapiens) (from UniProt Q96QK1) D620N,effect of a mutation on the interaction,vp26a_mouse Vps26a,with no effect
same,effect of a mutation on the interaction,vps29_mouse Vps29,with no effect
